Results taken from PMC2756588.

T1: Abp1, P15891
T1 sequence (P15891 535-592, looked up): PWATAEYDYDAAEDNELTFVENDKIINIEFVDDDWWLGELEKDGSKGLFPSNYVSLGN

T2: Bbc1, P47068
T2 sequence (P47068 1-78, looked up): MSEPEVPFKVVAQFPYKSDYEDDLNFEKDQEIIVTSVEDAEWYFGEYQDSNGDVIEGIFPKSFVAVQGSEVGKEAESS

T3: Boi1, P38041
T3 sequence (P38041 1-86, looked up): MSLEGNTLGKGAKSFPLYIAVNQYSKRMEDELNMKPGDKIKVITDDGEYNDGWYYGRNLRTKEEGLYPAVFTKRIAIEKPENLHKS

T4: Boi2, P39969
T4 sequence (P39969 32-116, looked up): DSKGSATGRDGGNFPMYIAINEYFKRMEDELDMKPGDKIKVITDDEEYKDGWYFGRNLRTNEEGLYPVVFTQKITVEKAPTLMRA

T5: Bud14, P27637
T5 sequence (P27637 247-328, looked up): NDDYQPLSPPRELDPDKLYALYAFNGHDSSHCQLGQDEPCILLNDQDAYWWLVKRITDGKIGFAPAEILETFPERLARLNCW

T6: Bzz1-1, P38822
T6 sequence (P38822 478-572, looked up): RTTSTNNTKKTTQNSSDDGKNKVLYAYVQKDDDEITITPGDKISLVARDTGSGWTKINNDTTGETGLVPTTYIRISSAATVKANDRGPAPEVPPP

T7: Bzz1-2, P38822
T7 sequence (P38822 568-633, looked up): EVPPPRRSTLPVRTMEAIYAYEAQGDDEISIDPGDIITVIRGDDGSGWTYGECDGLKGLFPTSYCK

T8: Cdc25, P04821
T8 sequence (P04821 50-136, looked up): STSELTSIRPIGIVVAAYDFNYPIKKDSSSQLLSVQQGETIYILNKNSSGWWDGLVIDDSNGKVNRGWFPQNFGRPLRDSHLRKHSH

T9: Cyk3, Q07533
T9 sequence (Q07533 1-83, looked up): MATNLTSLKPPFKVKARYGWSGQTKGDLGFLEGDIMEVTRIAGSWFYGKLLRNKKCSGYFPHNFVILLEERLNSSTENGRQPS

T10: Fus1, P11710
T10 sequence (P11710 432-512, looked up): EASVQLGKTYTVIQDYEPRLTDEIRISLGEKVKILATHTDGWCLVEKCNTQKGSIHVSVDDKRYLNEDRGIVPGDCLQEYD

T11: Hof1, Q05080
T11 sequence (Q05080 590-669, looked up): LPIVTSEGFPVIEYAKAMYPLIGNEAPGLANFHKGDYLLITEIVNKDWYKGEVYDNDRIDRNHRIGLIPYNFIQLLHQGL

T12: Hse1, P38753
T12 sequence (P38753 208-285, looked up): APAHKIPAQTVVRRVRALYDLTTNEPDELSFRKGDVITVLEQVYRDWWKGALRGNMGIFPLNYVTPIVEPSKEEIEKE

T13: Lsb1, P53281
T13 sequence (P53281 45-122, looked up): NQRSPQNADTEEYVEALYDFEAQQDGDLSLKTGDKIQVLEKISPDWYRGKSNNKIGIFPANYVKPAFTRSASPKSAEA

T14: Lsb3, P43603
T14 sequence (P43603 385-451, looked up): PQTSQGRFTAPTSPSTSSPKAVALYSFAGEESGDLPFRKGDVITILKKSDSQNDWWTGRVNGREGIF

T15: Lsb4, P32793
T15 sequence (P32793 402-468, looked up): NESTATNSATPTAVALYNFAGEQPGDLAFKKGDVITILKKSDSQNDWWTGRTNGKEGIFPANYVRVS

T16: Myo5, Q04439
T16 sequence (Q04439 1072-1160, looked up): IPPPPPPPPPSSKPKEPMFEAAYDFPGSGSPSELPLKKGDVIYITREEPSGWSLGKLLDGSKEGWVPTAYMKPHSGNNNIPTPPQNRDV

T17: Nbp2, Q12163
T17 sequence (Q12163 103-180, looked up): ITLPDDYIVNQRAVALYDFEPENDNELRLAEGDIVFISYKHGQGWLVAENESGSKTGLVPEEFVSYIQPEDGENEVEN

T18: Pex13, P80667
T18 sequence (P80667 295-386, looked up): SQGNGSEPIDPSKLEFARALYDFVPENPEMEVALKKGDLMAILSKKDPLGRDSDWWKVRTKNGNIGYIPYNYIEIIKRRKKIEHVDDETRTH

T19: Pin3, Q06449
T19 sequence (Q06449 53-122, looked up): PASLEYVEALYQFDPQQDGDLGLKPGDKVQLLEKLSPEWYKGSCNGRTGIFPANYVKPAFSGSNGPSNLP

T20: Sla1-2, P32790
T20 sequence (P32790 60-140, looked up): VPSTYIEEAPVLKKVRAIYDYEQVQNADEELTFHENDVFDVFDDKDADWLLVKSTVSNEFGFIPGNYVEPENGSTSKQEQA

T21: Sla1-3, P32790
T21 sequence (P32790 344-424, looked up): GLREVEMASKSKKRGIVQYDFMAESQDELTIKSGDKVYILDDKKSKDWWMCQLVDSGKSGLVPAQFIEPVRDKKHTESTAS


The binders below were run against T1, Abp1, P15891 (assay: SPOT array). Settings: median of control spots 935.

| SPOT intensity | Binder |
| --- | --- |
| 32 | MKRSRPSRSIPYTTP |
| 196 | KKIRLIFTYPSTVGR |
| 110 | RSKRLFPVRPMATAH |

These binders were tested against T2, Bbc1, P47068 (assay: SPOT array). Settings: median of control spots 796.

| SPOT intensity | Binder |
| --- | --- |
| 25 | MKRSRPSRSIPYTTP |
| 277 | KKIRLIFTYPSTVGR |
| 49 | RSKRLFPVRPMATAH |

What follows are binders tested against Bem1-1, P29366 (assay: SPOT array). Settings: median of control spots 4282.
Sequence of Bem1-1, P29366 (P29366 55-141): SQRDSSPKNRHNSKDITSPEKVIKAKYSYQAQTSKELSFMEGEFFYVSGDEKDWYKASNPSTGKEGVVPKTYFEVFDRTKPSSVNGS

| SPOT intensity | Binder |
| --- | --- |
| 0 | MKRSRPSRSIPYTTP |
| 0 | KKIRLIFTYPSTVGR |
| 0 | RSKRLFPVRPMATAH |

What follows are binders tested against Bem1-2, P29366 (assay: SPOT array). Settings: median of control spots 4347.
Sequence of Bem1-2, P29366 (P29366 139-227): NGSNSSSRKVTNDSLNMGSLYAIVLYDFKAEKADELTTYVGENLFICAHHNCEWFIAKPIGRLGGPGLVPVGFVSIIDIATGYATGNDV

| SPOT intensity | Binder |
| --- | --- |
| 39 | MKRSRPSRSIPYTTP |
| 0 | KKIRLIFTYPSTVGR |
| 14 | RSKRLFPVRPMATAH |

The binders below were run against T3, Boi1, P38041 (assay: SPOT array). Settings: median of control spots 1162.

| SPOT intensity | Binder |
| --- | --- |
| 3 | MKRSRPSRSIPYTTP |
| 61 | KKIRLIFTYPSTVGR |
| 0 | RSKRLFPVRPMATAH |

These binders were tested against T4, Boi2, P39969 (assay: SPOT array). Settings: median of control spots 1161.

| SPOT intensity | Binder |
| --- | --- |
| 2 | MKRSRPSRSIPYTTP |
| 13 | KKIRLIFTYPSTVGR |
| 0 | RSKRLFPVRPMATAH |

What follows are binders tested against T5, Bud14, P27637 (assay: SPOT array). Settings: median of control spots 956.

| SPOT intensity | Binder |
| --- | --- |
| 7 | MKRSRPSRSIPYTTP |
| 9 | KKIRLIFTYPSTVGR |
| 6 | RSKRLFPVRPMATAH |

The binders below were run against T6, Bzz1-1, P38822 (assay: SPOT array). Settings: median of control spots 4446.

| SPOT intensity | Binder |
| --- | --- |
| 1 | MKRSRPSRSIPYTTP |
| 2 | KKIRLIFTYPSTVGR |
| 1 | RSKRLFPVRPMATAH |

Each binder was assayed against T7, Bzz1-2, P38822 (assay: SPOT array). Settings: median of control spots 4538.

| SPOT intensity | Binder |
| --- | --- |
| 29 | MKRSRPSRSIPYTTP |
| 2 | KKIRLIFTYPSTVGR |
| 13 | RSKRLFPVRPMATAH |

Each binder was assayed against T8, Cdc25, P04821 (assay: SPOT array). Settings: median of control spots 969.

| SPOT intensity | Binder |
| --- | --- |
| 9 | MKRSRPSRSIPYTTP |
| 163 | KKIRLIFTYPSTVGR |
| 22 | RSKRLFPVRPMATAH |

These binders were tested against T9, Cyk3, Q07533 (assay: SPOT array). Settings: median of control spots 1451.

| SPOT intensity | Binder |
| --- | --- |
| 1 | MKRSRPSRSIPYTTP |
| 10 | KKIRLIFTYPSTVGR |
| 0 | RSKRLFPVRPMATAH |

Each binder was assayed against T10, Fus1, P11710 (assay: SPOT array). Settings: median of control spots 1200.

| SPOT intensity | Binder |
| --- | --- |
| 5 | MKRSRPSRSIPYTTP |
| 73 | KKIRLIFTYPSTVGR |
| 17 | RSKRLFPVRPMATAH |

Each binder was assayed against GST (assay: SPOT array). Settings: median of control spots 978.

| SPOT intensity | Binder |
| --- | --- |
| 0 | MKRSRPSRSIPYTTP |
| 0 | KKIRLIFTYPSTVGR |
| 0 | RSKRLFPVRPMATAH |

What follows are binders tested against T11, Hof1, Q05080 (assay: SPOT array). Settings: median of control spots 4086.

| SPOT intensity | Binder |
| --- | --- |
| 0 | MKRSRPSRSIPYTTP |
| 0 | KKIRLIFTYPSTVGR |
| 7 | RSKRLFPVRPMATAH |

Each binder was assayed against T12, Hse1, P38753 (assay: SPOT array). Settings: median of control spots 1727.

| SPOT intensity | Binder |
| --- | --- |
| 14 | MKRSRPSRSIPYTTP |
| 4 | KKIRLIFTYPSTVGR |
| 12 | RSKRLFPVRPMATAH |

The binders below were run against T13, Lsb1, P53281 (assay: SPOT array). Settings: median of control spots 388.

| SPOT intensity | Binder |
| --- | --- |
| 0 | MKRSRPSRSIPYTTP |
| 50 | KKIRLIFTYPSTVGR |
| 5 | RSKRLFPVRPMATAH |

The binders below were run against T14, Lsb3, P43603 (assay: SPOT array). Settings: median of control spots 406.

| SPOT intensity | Binder |
| --- | --- |
| 1 | MKRSRPSRSIPYTTP |
| 20 | KKIRLIFTYPSTVGR |
| 4 | RSKRLFPVRPMATAH |

What follows are binders tested against T15, Lsb4, P32793 (assay: SPOT array). Settings: median of control spots 397.

| SPOT intensity | Binder |
| --- | --- |
| 6 | MKRSRPSRSIPYTTP |
| 28 | KKIRLIFTYPSTVGR |
| 15 | RSKRLFPVRPMATAH |

The binders below were run against Myo3, P36006 (assay: SPOT array). Settings: median of control spots 468.

| SPOT intensity | Binder |
| --- | --- |
| 5 | MKRSRPSRSIPYTTP |
| 41 | KKIRLIFTYPSTVGR |
| 2 | RSKRLFPVRPMATAH |

Each binder was assayed against T16, Myo5, Q04439 (assay: SPOT array). Settings: median of control spots 471.

| SPOT intensity | Binder |
| --- | --- |
| 2 | MKRSRPSRSIPYTTP |
| 12 | KKIRLIFTYPSTVGR |
| 2 | RSKRLFPVRPMATAH |

These binders were tested against T17, Nbp2, Q12163 (assay: SPOT array). Settings: median of control spots 357.

| SPOT intensity | Binder |
| --- | --- |
| 0 | MKRSRPSRSIPYTTP |
| 258 | KKIRLIFTYPSTVGR |
| 46 | RSKRLFPVRPMATAH |

The binders below were run against T18, Pex13, P80667 (assay: SPOT array). Settings: median of control spots 1341.

| SPOT intensity | Binder |
| --- | --- |
| 10 | MKRSRPSRSIPYTTP |
| 12 | KKIRLIFTYPSTVGR |
| 11 | RSKRLFPVRPMATAH |

Each binder was assayed against T19, Pin3, Q06449 (assay: SPOT array). Settings: median of control spots 2171.

| SPOT intensity | Binder |
| --- | --- |
| 34 | MKRSRPSRSIPYTTP |
| 31 | KKIRLIFTYPSTVGR |
| 12 | RSKRLFPVRPMATAH |

These binders were tested against Rvs167, P39743 (assay: SPOT array). Settings: median of control spots 2707.
Sequence of Rvs167, P39743 (P39743 419-482): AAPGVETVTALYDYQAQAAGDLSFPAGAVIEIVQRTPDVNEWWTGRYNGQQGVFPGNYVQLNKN

| SPOT intensity | Binder |
| --- | --- |
| 6 | MKRSRPSRSIPYTTP |
| 0 | KKIRLIFTYPSTVGR |
| 9 | RSKRLFPVRPMATAH |

These binders were tested against Sho1, P40073 (assay: SPOT array). Settings: median of control spots 1148.
Sequence of Sho1, P40073 (P40073 287-367): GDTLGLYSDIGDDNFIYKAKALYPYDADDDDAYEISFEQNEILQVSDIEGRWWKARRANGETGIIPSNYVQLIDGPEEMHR

| SPOT intensity | Binder |
| --- | --- |
| 54 | MKRSRPSRSIPYTTP |
| 253 | KKIRLIFTYPSTVGR |
| 90 | RSKRLFPVRPMATAH |

These binders were tested against T20, Sla1-2, P32790 (assay: SPOT array). Settings: median of control spots 712.

| SPOT intensity | Binder |
| --- | --- |
| 6 | MKRSRPSRSIPYTTP |
| 6 | KKIRLIFTYPSTVGR |
| 0 | RSKRLFPVRPMATAH |

These binders were tested against T21, Sla1-3, P32790 (assay: SPOT array). Settings: median of control spots 5475.

| SPOT intensity | Binder |
| --- | --- |
| 35 | MKRSRPSRSIPYTTP |
| 8 | KKIRLIFTYPSTVGR |
| 36 | RSKRLFPVRPMATAH |
